# Like-named read-outs stand apart in the source and are kept apart here.
# B1: G-CSF: human G-CSF mRNA, SEQ ID NO: 6, polyA about 160 nt, Cap1, fully modified with 5-methylcytosine and pseudouridine (nucleic acid, listed as Homo sapiens)
# chain: GGGAAAUAAGAGAGAAAAGAAGAGUAAGAAGAAAUAUAAGAGCCACCAUGGCCGGUCCCGCGACCCAAAGCCCCAUGAAACUUAUGGCCCUGCAGUUGCUGCUUUGGCACUCGGCCCUCUGGACAGUCCAAGAAGCGACUCCUCUCGGACCUGCCUCAUCGUUGCCGCAGUCAUUCCUUUUGAAGUGUCUGGAGCAGGUGCGAAAGAUUCAGGGCGAUGGAGCCGCACUCCAAGAGAAGCUCUGCGCGACAUACAAACUUUGCCAUCCCGAGGAGCUCGUACUGCUCGGGCACAGCUUGGGGAUUCCCUGGGCUCCUCUCUCGUCCUGUCCGUCGCAGGCUUUGCAGUUGGCAGGGUGCCUUUCCCAGCUCCACUCCGGUUUGUUCUUGUAUCAGGGACUGCUGCAAGCCCUUGAGGGAAUCUCGCCAGAAUUGGGCCCGACGCUGGACACGUUGCAGCUCGACGUGGCGGAUUUCGCAACAACCAUCUGGCAGCAGAUGGAGGAACUGGGGAUGGCACCCGCGCUGCAGCCCACGCAGGGGGCAAUGCCGGCCUUUGCGUCCGCGUUUCAGCGCAGGGCGGGUGGAGUCCUCGUAGCGAGCCACCUUCAAUCAUUUUUGGAAGUCUCGUACCGGGUGCUGAGACAUCUUGCGCAGCCGUGAAGCGCUGCCUUCUGCGGGGCUUGCCUUCUGGCCAUGCCCUUCUUCUCUCCCUUGCACCUGUACCUCUUGGUCUUUGAAUAAAGCCUGAGUAGGAAG
# modifications: Cap1; polyA; 5-methylcytosine, pseudouridine
# Assays:
# [1] = Non-human primate serum chemistry: alanine transaminase (ALT), aspartate transaminase (AST); format: in vivo, cynomolgus monkey; conditions: for Aspartate Transaminase (AST): Female NHP; for Alanine Transaminase (ALT): Male NHP
# IFN-alpha = assay: Cytokine study PBMC, IFN-alpha production ELISA; format: cell-based; conditions: human PBMC, Lipofectamine 2000
# Description: The plates were then incubated at 37 C.
# Each condition was done in duplicate
# Shown in Tables 69 and 70 are the average from 2 separate PBMC donors of the G-CSF and IFN-alpha production over time as measured by specific ELISA.
# [2] = Non-human primate in vivo study, serum G-CSF or EPO by ELISA; set-up: species or system cynomolgus monkey; conditions: for Female NHP Serum Concentration / Male NHP Serum Concentration: G-CSF LNP, 0.05 mg/kg IV
# Description: (§1) Formulations, listed in Table 31, were characterized by particle size, zeta potential, and encapsulation.
# LNP formulations, shown in Table 31 (above), were administered to non-human primates (NHP) (cynomolgus monkey) (n=2) as a bolus intravenous injection (IV) over approximately 30 seconds using a hypodermic needle, which may be attached to a syringe/abbocath or butterfly if needed. The NHP were administered a single modified mRNA IV dose of 0.05 mg/kg of EPO or G-CSF or 0.005 mg/kg of EPO in a dose volume of 0.5 mL/kg. The NHPs were bled 5-6 days before dosing with the modified mRNA LNP formulations to determine protein expression in the serum and a baseline complete blood count. After administration with the modified mRNA formulation the NHP were bled at 8, 24, 48 and 72 hours to determined protein expression. At 24 and 72 hours after administration the complete blood count of the NHP was also determined. Protein expression of G-CSF and EPO was determined by ELISA. Urine from the NHPs was collected over the course of the entire experiment and analyzed to evaluate clinical safety. Samples were collected from the NHPs after they were administered with G-CSF or EPO modified mRNA formulations to determine protein expression using ELISA. Clinical chemistry, hematology, urinalysis and cytokines of the non-human primates were also analyzed.
# [3] = Non-human primate in vivo study for G-CSF and EPO, serum protein by ELISA; set-up: species or system cynomolgus monkey
# Description: as §1
# LNP formulations, shown in Table 31 (above), were administered to non-human primates (NHP) (cynomolgus monkey) (n=2) as intravenous injection (IV). The NHP were administered a single modified mRNA IV dose of 0.5 mg/kg, 0.05 mg/kg or 0.005 mg/kg of G-CSF or EPO in a dose volume of 0.5 mL/kg. The NHPs were bled before dosing with the modified mRNA LNP formulations to determine protein expression in the serum and a baseline complete blood count. After administration with the G-CSF modified mRNA formulation the NHP were bled at 8, 24, 48 and 72 hours to determined protein expression. After administration with the EPO modified mRNA formulation the NHP were bled at 8, 24, 48, 72 hours and 7 days to determined protein expression.
# Samples collected from the NHPs after they were administered with G-CSF or EPO modified mRNA formulations were analyzed by ELISA to determine protein expression. Neutrophil and reticulocyte count was also determined pre-dose, 24 hours, 3 days, 7 days, 14 days and 18 days after administration of the modified G-CSF or EPO formulation.
# [4] = for Serum Concentration 8-12 hours after administration: G-CSF; for G-CSF Protein Expression, Conc: mice IV, serum 8 hrs
# [5] = LNP in vivo study IV, IM, SC, serum G-CSF or EPO by ELISA; conditions: rats, 0.05 mg/kg
# Description: as §1
# LNP formulations, shown in Table 31 (above), were administered to rats (n=5) intravenously (IV), intramuscularly (IM) or subcutaneously (SC) at a single modified mRNA dose of 0.05 mg/kg. A control group of rats (n=4) was untreated. The rats were bled at 2 hours, 8 hours, 24 hours, 48 hours and 96 hours and after they were administered with G-CSF or EPO modified mRNA formulations to determine protein expression using ELISA. The rats administered EPO modified mRNA intravenously were also bled at 7 days.
# Description for HEK293 cells: Human embryonic kidney epithelial (HEK293) cells were seeded on 96-well plates at a density of 30,000 cells per well in 100 ul cell culture medium. 250 ng of modified G-CSF mRNA (SEQ ID NO: 6; polyA tail of approximately 160 nucleotides not shown in sequence; 5′cap, Cap1) formulated with RNAiMAX™ (Invitrogen, Carlsbad, Calif.) was added to a well. The G-CSF was completely modified with 5mC and pseudoU (100% modification), not modified with 5mC and pseudoU (0% modification) or was partially modified with 5mC and pseudoU so the mRNA would contain 75% modification, 50% modification or 25% modification. Control samples (AH 5/2, mCherry (SEQ ID NO: 7; polyA tail of approximately 160 nucleotides not shown in sequence; 5′cap, Cap1; fully modified 5mC and pseudoU) and untreated) were also analyzed. […] The supernatants were harvested after 16 hours and the secreted G-CSF protein was analyzed by ELISA.
molecule,measurement,setting,value
B1,Aspartate Transaminase (AST),"[1]; 0.005 mg/kg, 2 days",34 U/L
same,Aspartate Transaminase (AST),"[1]; 0.005 mg/kg, 4 days",36 U/L
same,Aspartate Transaminase (AST),"[1]; 0.005 mg/kg, 7 days",31 U/L
same,Aspartate Transaminase (AST),"[1]; 0.005 mg/kg, 14 days",20 U/L
same,Aspartate Transaminase (AST),"[1]; 0.005 mg/kg, Pre-dose",54 U/L
same,Aspartate Transaminase (AST),"[1]; 0.05 mg/kg, 1 days",34 U/L
same,Aspartate Transaminase (AST),"[1]; 0.05 mg/kg, 4 days",42 U/L
same,Aspartate Transaminase (AST),"[1]; 0.05 mg/kg, 7 days",52 U/L
same,Aspartate Transaminase (AST),"[1]; 0.05 mg/kg, 14 days",20 U/L
same,Aspartate Transaminase (AST),"[1]; 0.05 mg/kg, Pre-dose",33 U/L
same,Aspartate Transaminase (AST),"[1]; 0.5 mg/kg, 2 days",794 U/L
same,Aspartate Transaminase (AST),"[1]; 0.5 mg/kg, 4 days",63 U/L
same,Aspartate Transaminase (AST),"[1]; 0.5 mg/kg, 7 days",68 U/L
same,Aspartate Transaminase (AST),"[1]; 0.5 mg/kg, 14 days",67 U/L
same,Aspartate Transaminase (AST),"[1]; 0.5 mg/kg, Pre-dose",47 U/L
same,Alanine Transaminase (ALT),"[1]; 0.005 mg/kg, 2 days",39 U/L
same,Alanine Transaminase (ALT),"[1]; 0.005 mg/kg, 4 days",48 U/L
same,Alanine Transaminase (ALT),"[1]; 0.005 mg/kg, 7 days",29 U/L
same,Alanine Transaminase (ALT),"[1]; 0.005 mg/kg, 14 days",44 U/L
same,Alanine Transaminase (ALT),"[1]; 0.005 mg/kg, Pre-dose",43 U/L
same,Alanine Transaminase (ALT),"[1]; 0.05 mg/kg, 2 days",82 U/L
same,Alanine Transaminase (ALT),"[1]; 0.05 mg/kg, 4 days",88 U/L
same,Alanine Transaminase (ALT),"[1]; 0.05 mg/kg, 7 days",73 U/L
same,Alanine Transaminase (ALT),"[1]; 0.05 mg/kg, 14 days",50 U/L
same,Alanine Transaminase (ALT),"[1]; 0.05 mg/kg, Pre-dose",58 U/L
same,Alanine Transaminase (ALT),"[1]; 0.5 mg/kg, 2 days",63 U/L
same,Alanine Transaminase (ALT),"[1]; 0.5 mg/kg, 4 days",70 U/L
same,Alanine Transaminase (ALT),"[1]; 0.5 mg/kg, 7 days",41 U/L
same,Alanine Transaminase (ALT),"[1]; 0.5 mg/kg, 14 days",43 U/L
same,Alanine Transaminase (ALT),"[1]; 0.5 mg/kg, Pre-dose",29 U/L
same,half-life of mRNA,HEK293 cells,8 to 10 h
same,"innate immune recognition, cytokines (IFN-alpha)",IFN-alpha,"induced IFN-alpha, TNF-alpha and IP10"
same,Female NHP Serum Concentration,[2]; 8 hours,3289 pg/mL
same,Male NHP Serum Concentration,[2]; 8 hours,1722 pg/mL
same,Female NHP Serum Concentration,[2]; 48 hours,0 pg/mL
same,Male NHP Serum Concentration,[2]; 48 hours,0 pg/mL
same,Female NHP Serum Concentration,[2]; 72 hours,0 pg/mL
same,Male NHP Serum Concentration,[2]; 72 hours,0 pg/mL
same,Female NHP Serum Concentration,[2]; Pre-bleed,0 pg/mL
same,Male NHP Serum Concentration,[2]; Pre-bleed,0 pg/mL
same,time out to which protein expression was detectable,"[2]; NHP IV, LNP, 0.05 mg/kg",24 h
same,Male NHP Serum G-CSF Concentration,"[3]; 0.005 mg/kg IV LNP, 24 hours",<39 pg/mL
same,Male NHP Serum G-CSF Concentration,"[3]; 0.005 mg/kg IV LNP, 48 hours",<39 pg/mL
same,Male NHP Serum G-CSF Concentration,"[3]; 0.005 mg/kg IV LNP, 72 hours",<39 pg/mL
same,Male NHP Serum G-CSF Concentration,"[3]; 0.005 mg/kg IV LNP, Pre-bleed",<39 pg/mL
same,Female NHP Serum G-CSF Concentration,"[3]; 0.05 mg/kg IV LNP, 8 hours","3,289 pg/ml"
same,Male NHP Serum G-CSF Concentration,"[3]; 0.05 mg/kg IV LNP, 8 hours","1,722 pg/ml"
same,Female NHP Serum G-CSF Concentration,"[3]; 0.05 mg/kg IV LNP, 24 hours",722 pg/mL
same,Male NHP Serum G-CSF Concentration,"[3]; 0.05 mg/kg IV LNP, 24 hours",307 pg/mL
same,Male NHP Serum G-CSF Concentration,"[3]; 0.05 mg/kg IV LNP, 48 hours",<39 pg/mL
same,Male NHP Serum G-CSF Concentration,"[3]; 0.05 mg/kg IV LNP, 72 hours",<39 pg/mL
same,Male NHP Serum G-CSF Concentration,"[3]; 0.05 mg/kg IV LNP, Pre-bleed",<39 pg/mL
same,Male NHP Serum G-CSF Concentration,"[3]; 0.5 mg/kg IV LNP, Pre-bleed, limit of detection 39 pg/ml",<39 pg/mL
same,time beyond which protein expression was not detected,"[3]; NHP IV, G-CSF LNP",≤ 72 h
same,Serum Concentration 8-12 hours after administration,"[4]; IM, 100 ug, saline",~20 to 80 pg/mL
same,Serum Concentration 8-12 hours after administration,"[4]; IV (LNP), 1 ug","~20,000 pg/ml"
same,Serum Concentration 8-12 hours after administration,"[4]; IV (LNP), 10 ug","~1,000,000 pg/ml"
same,Serum Concentration 8-12 hours after administration,"[4]; IV (LNP), 100 ug","~5,000,000 pg/ml"
same,Serum Concentration 8-12 hours after administration,"[4]; IV (Lipoplex), 100 ug",~30 pg/mL
same,Serum Concentration 8-12 hours after administration,"[4]; SC, 100 ug, saline",~10 to 40 pg/mL
same,"G-CSF Protein Expression, Conc","[4]; LNP NPA-030-1, 10 ug",~1200 ng/mL
same,"G-CSF Protein Expression, Conc","[4]; LNP NPA-030-1, 100 ug",~4700 ng/mL
same,time out to which protein expression was detectable,[5]; intravenous,7 days
same,time out to which protein expression was detectable,[5]; subcutaneous and intramuscular,at least 8 hours

# From patent US20200164038A1, “MODIFIED NUCLEOSIDE, NUCLEOTIDE, AND NUCLEIC ACID COMPOSITIONS” (ModernaTX, Inc., priority 2011, published 2020)
